Data: patent US20090265797A1 (PIERRE FABRE MEDICAMENT, published 2009)
One block for each binder: values may come before it.

Legend:
[1] = target: T1, human IGF-IR (hIGF-IR) from membrane lysate of NIH 3T3 cells stably transfected with the human IGF-IR cDNA, … (human, UniProt P08069 31-1367); experiment: competition of 100 pM [125I]-IGF1 binding to hIGF-IR captured by antibody 17-69 on Protein A FlashPlate; displacement of [^125I]-IGF1 (not [^125I]-IGF2) from immobilized hIGF-IR
T1 construct: Whole receptor (alpha and beta subunits from one precursor) solubilised from membranes, not on cells; also called immobilized hIGF-IR; human IGF-1 receptor
Procedure: (§1) Two hundred μl of a 20 μg/ml antibody solution in PBS were added to each well and incubated overnight at +4° C. The buffer containing residual 17-69 not attached to protein A was removed by aspiration. Two hundred μl of the membrane lysate at 100 μg/ml were further added and incubated for 2 h at room temperature to immobilize IGF-IR. Non captured proteins were removed by aspiration. […] The plates were incubated at room temperature for 2 h, then counted on a Packard Top Count Microplate Scintillation Counter.
(§2) Concentrations of the various inhibitors required to inhibit the radioligand binding by 50% (IC₅₀) were determined graphically from the sigmoid competition curves obtained (FIGS. 1 and 2).

[2] = target: T1, human IGF-IR (hIGF-IR) from membrane …; experiment: competition of 100 pM [125I]-IGF1 binding to immobilized hIGF-IR; reference: unlabeled IGF1
Procedure: as §1, §2

[3] = target: T1, human IGF-IR (hIGF-IR) from membrane …; experiment: competition of 100 pM [125I]-IGF2 binding to hIGF-IR captured by antibody 17-69 on Protein A FlashPlate
Procedure: as §1, §2

[4] = target: IGF-IR on MCF-7 or HT29 cells (human, UniProt P08069 31-1367); experiment: cell-based or functional assay
[5] = target: soluble human insulin-like growth factor-1 receptor (hIGF-IR) extra-cellular domain (ECD) (human) (UniProt P08069); experiment: SPR, BIAcore T100, 25 °C; antibody captured by anti-human IgG Fc on CM5, hIGF-IR-ECD as analyte (6.25-100 nM)
[6] = target: soluble human insulin-like growth factor-1 receptor (hIGF-IR) extra-cellular domain (ECD) (human) (UniProt P08069); experiment: SPR, BIAcore T100, 25 °C; antibody captured by anti-human IgG Fc on CM5, hIGF-IR-ECD as analyte; KD = kd/ka

T1 sequence (P08069 31-1367 limits assumed): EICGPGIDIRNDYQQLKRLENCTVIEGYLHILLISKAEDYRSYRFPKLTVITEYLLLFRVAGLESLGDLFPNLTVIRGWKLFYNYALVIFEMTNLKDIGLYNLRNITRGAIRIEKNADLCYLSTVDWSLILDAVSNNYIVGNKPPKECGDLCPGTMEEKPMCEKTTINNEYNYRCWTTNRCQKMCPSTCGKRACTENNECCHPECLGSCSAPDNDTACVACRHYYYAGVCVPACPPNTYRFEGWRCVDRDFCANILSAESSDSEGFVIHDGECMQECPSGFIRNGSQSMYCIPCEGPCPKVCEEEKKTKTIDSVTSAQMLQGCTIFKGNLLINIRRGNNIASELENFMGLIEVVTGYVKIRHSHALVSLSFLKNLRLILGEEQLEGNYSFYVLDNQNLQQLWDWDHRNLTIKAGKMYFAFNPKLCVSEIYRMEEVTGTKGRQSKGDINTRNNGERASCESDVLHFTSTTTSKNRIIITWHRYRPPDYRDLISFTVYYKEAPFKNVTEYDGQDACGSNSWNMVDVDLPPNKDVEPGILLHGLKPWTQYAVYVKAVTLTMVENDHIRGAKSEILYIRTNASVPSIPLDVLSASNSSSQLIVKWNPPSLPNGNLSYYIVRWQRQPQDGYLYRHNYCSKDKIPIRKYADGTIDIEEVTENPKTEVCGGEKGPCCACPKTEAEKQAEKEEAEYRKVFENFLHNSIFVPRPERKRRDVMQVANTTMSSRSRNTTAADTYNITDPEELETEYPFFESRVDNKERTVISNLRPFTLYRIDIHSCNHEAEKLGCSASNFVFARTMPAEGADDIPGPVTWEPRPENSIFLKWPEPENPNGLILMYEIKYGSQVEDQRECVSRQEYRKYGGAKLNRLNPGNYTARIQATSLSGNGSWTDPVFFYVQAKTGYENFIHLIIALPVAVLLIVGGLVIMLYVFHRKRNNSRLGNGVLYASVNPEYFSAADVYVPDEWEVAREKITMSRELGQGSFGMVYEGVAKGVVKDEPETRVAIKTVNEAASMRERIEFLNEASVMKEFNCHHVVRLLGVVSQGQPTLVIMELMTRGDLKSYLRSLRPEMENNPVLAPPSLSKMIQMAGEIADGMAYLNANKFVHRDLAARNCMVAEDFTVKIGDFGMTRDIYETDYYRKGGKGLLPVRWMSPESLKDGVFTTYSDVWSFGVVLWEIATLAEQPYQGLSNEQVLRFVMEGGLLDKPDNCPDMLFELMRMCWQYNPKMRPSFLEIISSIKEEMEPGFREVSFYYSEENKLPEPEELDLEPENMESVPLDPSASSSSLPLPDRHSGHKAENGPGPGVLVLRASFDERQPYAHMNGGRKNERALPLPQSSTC
Sequence of IGF-IR on MCF-7 or HT29 cells (P08069 31-1367): as the sequence (P08069 31-1367 limits assumed) above

IC50 [1]: 21 pM | fold lower IC50 than non radiolabeled IGF1 [2]: 30 fold | IC50 [3]: ~100 pM | IC50 of inhibition of IGF1-induced proliferation of MCF-7 cells [4]: 700 pM | IC50 of inhibition of IGF2-induced proliferation of MCF-7 cells [4]: 500 pM
B1: murine monoclonal antibody I-3466 (antibody, V domains shown)
VH: EVMLVESGGDLVKPGGSLKLSCAASGFTFNNYIMSWVRQTPEKRLEWVATISGGGSYTFYPDSVKGRFSISRDNAKNTLYLQMSSLRSEDTAMYFCTRNQLLTGMINPLTTPRAWFTYWGQGTLVTVSA
VL: DIVMSQSPSSLAVSAGEKVTMNCKSSQSLLDSRTRKNYLAWYQQKPGQSPKLLIYWASTRESGVPDRFTGSGSGTDFTLTISSVQAEDLAVYYCKQSYNLFTFGGGTKLEIK
notes: a mouse IgG1 (9G4) served as its isotype control

koff [5]: 6.29e-05 s⁻¹ | kon [5]: 184000 M⁻¹ s⁻¹ | Kd [6]: 342 pM
B2: Humanized I-3466 IgG1 antibody (antibody, V domains shown)
VH: EVQLVESGGDLVQPGGSLRLSCAASGFTFNNYIMSWVRQAPGKGLEWVATISGGGSYTFYPDSVKGRFTISRDNSKNTLYLQMNSLRAEDTAVYFCTRNQLLTGMINPLTTPRAWFTYWGQGTLVTVSS
VL: DIVMTQSPDSLAVSLGERATINCKSSQSLLDSRTRKNYLAWYQQKPGQPPKLLIYWASTRESGVPDRFSGSGSGTDFTLTISSLQAEDVAVYYCKQSYNLFTFGGGTKVEIK
